Measured values as given in the supplement of paper PMC12764529.
± gives the half width of the 95% confidence interval.

Columns and labels:
[1] = folding stability dG unfold (combined trypsin and chymotrypsin); higher = more stable
In short: (§1)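 Mini-proteins designed to be under 80 residues and free of cysteine were carried in a PA-tagged cDNA display construct and digested with trypsin and with chymotrypsin. Each protease was applied at 11 threefold-diluted concentrations, alongside a no-protease condition, before sequencing. K50 came from Bayesian fitting of the sequencing counts, and unfolding free energy was obtained by comparing it with a sequence-predicted unfolded-state K50 and a shared folded-state K50, for each protease separately or for both together. Designs were retained only if their AlphaFold2 dimer inter-PAE exceeded 15.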

[2] = folding stability dG unfold from trypsin proteolysis; higher = more stable
In short: as §1

[3] = folding stability dG unfold from chymotrypsin proteolysis; higher = more stable
In short: as §1

Row | Sequence | folding stability dG unfold [1] [kcal/mol] | folding stability dG unfold [2] [kcal/mol] | folding stability dG unfold [3] [kcal/mol]
1 | SAGGSAEKEVYLVPFESEEKREKLREALLAEPGIEEVKETEDGVLLVTVPKGLSDKVEKAIKEAGISAGGSA [r15_834_TrMRF] | 1.17 ± 0.086 | 1.21 ± 0.047 | 1.08 ± 0.025
2 | SAGGSAEKVEIKVTYDKETGKVTVEIRVEVDLSEEQLKKLKELAEELGLEVEVTVEVRYEPPPPKESAGGSA [r15_542_TrROS_Hall] | 2.27 ± 0.49 | 2.99 ± 0.38 | 2.18 ± 0.31
3 | SAGGSAENDRFIVRVTIQMRNPGDGEKRTHTIPWFEFEPGKPAEEFAIDIADDFGIDNIDVEVYPLSAGGSA [r15_540_TrROS] | 1.57 ± 0.052 | 1.35 ± 0.023 | 1.68 ± 0.026
4 | SAGGSAEPLVYELPDGTVVLLPPTTAVVYHRLSDGRVVVVGLEVDDPPDPEKALARARAVVEALPDSAGGSA [r15_748_TrMRF] | 1.26 ± 0.13 | 0.067 ± 0.25 | 1.6 ± 0.11
5 | SAGGSAETIETVSSTFPVFSEDDKPVAVVKTYIFKFEDGELVLTEVFTPDGKPVAVKVASLDEFLNSAGGSA [r15_755_TrMRF] | 1.56 ± 0.071 | 1.27 ± 0.025 | 1.7 ± 0.045
6 | SAGGSAETLTITLTVKPGETVTIKALFKAEDGSVYAVTATFTAEDEGTVTITVTRLPPGVKDLADLSAGGSA [r15_909_TrROS_Hall] | 4.4 ± 0.16 | 2.83 ± 0.099 | 4.71 ± 0.1
7 | SAGGSAEVELVKVEVNPDGPYVKATFRIPGGGDVAVLVFDPDRPNTARLIVRPPNNEPIAEIELPLSAGGSA [r15_974_TrMRF] | 1.65 ± 0.2 | 1.52 ± 0.046 | 1.83 ± 0.28
8 | SAGGSAEWKEKALKMGAKEVKEDPANGYLYVTFPGPGRTIVIWKKEEDGTVTKVKTVSPSVKVEYKSAGGSA [r15_247_JUSTAS] | 0.491 ± 0.18 | -0.292 ± 0.41 | 0.817 ± 0.27
9 | SAGGSAGDKVVTVTATFTTTDPNGNEITIIAPITFLNGEGTAVIDAKAFNPTGELIAEATITVPIGSAGGSA [r15_967_TrMRF] | 2.07 ± 0.087 | 1.69 ± 0.057 | 2.34 ± 0.028
10 | SAGGSAGGAERIKNLLEDYGFELKDVEMDEPGSTKIHITPDNPSLRKDIKDKLPPGNVDSITDTSAGGSAGG [r6_84_TrROS] | 0.882 ± 0.26 | -0.0811 ± 0.14 | 1.33 ± 0.12
11 | SAGGSAGGAKPPKTVTVKVEVTNADGETQTRTVTLTNLPKDLKPGDTVTLPETGQTARIVEITPSAGGSAGG [r6_560_TrROS_Hall] | 3.17 ± 0.1 | 3.27 ± 0.078 | 3.02 ± 0.097
12 | SAGGSAGGDEIADKVKDLLRKHGWPVKEVEVTVMPHPPGRVYVMIEITMEHPGKKWTMEIMVEVSAGGSAGG [r6_533_TrROS] | 4.66 ± 0.13 | 3.15 ± 0.14 | 4.79 ± 0.054
13 | SAGGSAGGDESSTPPVTTTSTTPLPDGSTVTVTSTTTYPDSTTTTTKTYSNGSTTTSTTTTPGSSAGGSAGG [r6_910_JUSTAS] | -0.285 ± 0.13 | -0.0832 ± 0.051 | -0.803 ± 0.35
14 | SAGGSAGGDGLELKLTFTIPVTARSPLGGSYPVYLRLTLTYRLDDPRWELDLYALDPNGNWYPVSAGGSAGG [r6_393_TrMRF] | 4.84 ± 0.1 | 3.66 ± 0.18 | 5.12 ± 0.092
15 | SAGGSAGGDKKGKPKPQWVTIMFKVPDDDLPPEEIAKEFPGVKIERSPGMYMITVPVNGKWIPFSAGGSAGG [r6_739_TrROS] | 1.13 ± 0.093 | 1.02 ± 0.039 | 1.25 ± 0.14
16 | SAGGSAGGDNWYHITIFRMKIKEVEPRKDPDGEKEPQFNFKIKEVVTIPIPPNDPEKLKDALGASAGGSAGG [r6_738_TrROS] | 1.37 ± 0.12 | 0.745 ± 0.079 | 1.84 ± 0.13
17 | SAGGSAGGDPPNVKIEPEIEPRRDPDGKPYVKIPYTIELPDGRPIQIDMWIDPKNGNQGPHIHISAGGSAGG [r6_298_TrROS] | 0.64 ± 0.54 | 0.817 ± 0.24 | 0.486 ± 0.31
18 | SAGGSAGGDVVIIPEPSEEDKMIFTIVADGEEAPVVLTVEADNLADVVDFLKEHGLAAGHPDDGSAGGSAGG [r6_40_TrMRF] | 0.679 ± 0.11 | 0.713 ± 0.065 | 0.637 ± 0.052

Row | Sequence | folding stability dG unfold [1] [kcal/mol] | folding stability dG unfold [2] [kcal/mol] | folding stability dG unfold [3] [kcal/mol]
19 | SAGGSAGGDYERDPNNGKMKMKPKVEPPPPPKIIQIQIPFPEEADDFMNELQDNGYPIYLSPGGSAGGSAGG [r6_872_TrROS] | 0.745 ± 0.3 | 1.29 ± 0.18 | 0.179 ± 0.14
20 | SAGGSAGGEDRLLLRVEVIVGGVPFEPVLEVDHPELRELLEEGRVLVVELPGGAVGRLYAEPLASAGGSAGG [r6_478_TrMRF] | 0.811 ± 0.1 | 0.7 ± 0.049 | 0.704 ± 0.11
21 | SAGGSAGGEEAPPPPVTVTVTIEVEENEDGTLTVRIEVRDEATGETRTITVTMTLEELEELAKASAGGSAGG [r6_995_TrROS_Hall] | 2.78 ± 0.22 | 2.78 ± 0.11 | 2.56 ± 0.13
22 | SAGGSAGGEEIAKKLGIEKAEIVEVKDNKITLKVKLKNGEELKIELYIDKKTKEIKIVKIEKVPSAGGSAGG [r6_526_TrROS_Hall] | 2.88 ± 0.23 | 2.37 ± 0.079 | 3.11 ± 0.075
23 | SAGGSAGGEERVRLPITLEVPVPLAPVLLVSPDGSERLVPLPSVTLRITLELELTKEEWEKLLSSAGGSAGG [r6_119_TrMRF] | 3.16 ± 0.15 | 3.06 ± 0.2 | 3.36 ± 0.13
24 | SAGGSAGGEIEILPGAKIVRVERRKDGSLLIVVEVDGKLYLFRFKDGKVEVIELPEGASLEELLSAGGSAGG [r6_680_TrROS_Hall] | 4.92 ± 0.087 | 4.23 ± 0.14 | 4.99 ± 0.086
25 | SAGGSAGGEISPEDIESVETETRTLPNGLKITRTRVRVKKTNQWFELVRIEPLPAEELSEEELKSAGGSAGG [r6_757_TrROS_Hall] | 1.59 ± 0.13 | 1.37 ± 0.053 | 1.78 ± 0.062
26 | SAGGSAGGEIVITLPNVKSKEEAKKAAEKLIEELKKKGIKDKTIKVTVIDEKTGKEYTFTIKLKSAGGSAGG [r6_237_TrROS_Hall] | 4.14 ± 0.3 | 3.81 ± 0.15 | 4.38 ± 0.16
27 | SAGGSAGGEKVEKKEVKVELKIVIVVSEELREMSEEELEELLKELAAKLPGVKEVKIEILPLPESAGGSAGG [r6_710_TrROS_Hall] | 1.16 ± 0.13 | 1.04 ± 0.13 | 1.34 ± 0.13
28 | SAGGSAGGELEELPGLKVVAVFELPGNRRLVLFEAEGGRYLLLVEGEGTRLVPVPEDVSLEELASAGGSAGG [r6_680_TrMRF] | 3.179 ± 0.03 | 2.73 ± 0.043 | 3.394 ± 0.031
29 | SAGGSAGGEMTAEELAEKLAEELKEKGYEVEVEVVEVEVEEDTVRIKIKLKDGRELEIELKIEPSAGGSAGG [r6_617_TrROS_Hall] | 2.74 ± 0.25 | 2.58 ± 0.16 | 2.79 ± 0.28
30 | SAGGSAGGEPETIEIKMTPEELEELARELEKEGYTIEVEVVEEKVVGPDGKEREVVVRVRVEKRSAGGSAGG [r6_857_TrROS_Hall] | 1.1 ± 0.099 | 0.991 ± 0.03 | 1.32 ± 0.04
31 | SAGGSAGGESSRLVAVFKFPPSNPNIKTSISFPSLPKSAKISESQAPFGNEYYLVVVIEVPKNSSAGGSAGG [r6_480_TrMRF] | 3.37 ± 0.16 | 2.6 ± 0.16 | 3.88 ± 0.14
32 | SAGGSAGGEYEISIPNYELTEEKFDPNPGLLTVTYKDPEGKLVTITYKVKPDSIEKVKTETFEPSAGGSAGG [r6_719_JUSTAS] | 0.963 ± 0.064 | 0.569 ± 0.022 | 1.14 ± 0.049
33 | SAGGSAGGFFHIEIEWRPVKLEDLPEEDAANGKELKPGDEIWVIVKIEIYPMPPPKFDKDGELNSAGGSAGG [r6_547_TrROS] | 2.77 ± 0.2 | 2.23 ± 0.19 | 3.31 ± 0.23
34 | SAGGSAGGFKIPPGKTIMIQYPDGWMWRIKVKDGNTHMFKSPEEIEKLLNKPGFEIEIEWFPLDSAGGSAGG [r6_433_TrROS] | 1.67 ± 0.19 | 1.63 ± 0.083 | 1.74 ± 0.24
35 | SAGGSAGGGAVVLEEAFDPVRPERLVLVEVVNEKGEPFRFPVPLEDLEAVFEKLPPGFPVLVLPSAGGSAGG [r6_111_TrMRF] | 0.36 ± 0.048 | 0.491 ± 0.021 | 0.135 ± 0.1
36 | SAGGSAGGGDEVKTFKAKVKLVSVDPETGEQLVLAEVPDGKPILVKVPKSFPLKEDEIVEFELSSAGGSAGG [r6_68_TrMRF] | 1.3 ± 0.059 | 1.16 ± 0.027 | 1.31 ± 0.036
